What was measured:
[1] = target: 6-His-LIMK2 (recombinant, E. coli) (UniProt P53671)
[2] = target: 6-His-PHLDA1 (recombinant, E. coli) (UniProt Q8WV24)
Chain of 6-His-PHLDA1 (recombinant, E. coli) (Q8WV24 whole entry): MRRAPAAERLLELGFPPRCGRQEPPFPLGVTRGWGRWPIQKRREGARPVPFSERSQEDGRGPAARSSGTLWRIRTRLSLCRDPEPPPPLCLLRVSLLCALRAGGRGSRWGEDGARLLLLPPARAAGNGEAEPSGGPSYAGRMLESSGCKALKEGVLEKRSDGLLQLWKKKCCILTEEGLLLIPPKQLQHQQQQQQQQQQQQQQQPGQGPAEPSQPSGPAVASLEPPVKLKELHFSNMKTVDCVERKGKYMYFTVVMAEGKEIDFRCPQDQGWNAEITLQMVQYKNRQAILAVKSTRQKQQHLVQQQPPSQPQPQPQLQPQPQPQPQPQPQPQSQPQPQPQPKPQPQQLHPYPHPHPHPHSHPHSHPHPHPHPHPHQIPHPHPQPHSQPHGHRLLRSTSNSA

Chain of 6-His-LIMK2 (recombinant, E. coli) (P53671 whole entry, looked up): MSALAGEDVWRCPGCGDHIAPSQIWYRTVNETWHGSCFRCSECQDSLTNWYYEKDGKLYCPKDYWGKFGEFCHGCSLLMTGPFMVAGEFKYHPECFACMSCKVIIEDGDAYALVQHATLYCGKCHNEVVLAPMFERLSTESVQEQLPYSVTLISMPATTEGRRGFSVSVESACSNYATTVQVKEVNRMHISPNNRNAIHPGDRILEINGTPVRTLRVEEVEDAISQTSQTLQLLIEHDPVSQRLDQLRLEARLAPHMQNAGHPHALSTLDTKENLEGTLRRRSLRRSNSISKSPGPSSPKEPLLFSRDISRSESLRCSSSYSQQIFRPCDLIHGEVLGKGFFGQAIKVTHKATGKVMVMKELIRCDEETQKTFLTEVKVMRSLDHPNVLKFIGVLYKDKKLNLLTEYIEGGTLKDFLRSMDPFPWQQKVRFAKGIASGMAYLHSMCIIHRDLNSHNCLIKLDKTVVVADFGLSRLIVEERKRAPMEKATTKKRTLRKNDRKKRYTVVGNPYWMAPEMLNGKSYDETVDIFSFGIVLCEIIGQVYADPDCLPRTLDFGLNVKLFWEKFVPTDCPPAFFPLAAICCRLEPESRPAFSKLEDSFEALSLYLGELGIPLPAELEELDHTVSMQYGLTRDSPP

6-His-Aurora-A (recombinant, wild type, from Sf9 insect cells)
LIMK2 kinase activity (cofilin phosphorylation) after pre-incubation with Aurora A [1]: LIMK2 preincubated with Aurora A showed increased kinase activity (lane 2)
in vitro kinase assay with recombinant Aurora A/TPX2 and 6-His-LIMK2 (phosphorylation of LIMK2) [1]: Aurora A directly phosphorylates LIMK2 (FIG. 5A, lane 2)
in vitro phosphorylation of wild-type, S283A, T494A and T505A LIMK2 alleles by Aurora A/TPX2 [1]: Aurora A phosphorylates LIMK2 at all these sites (FIG. 8A)
in vitro kinase assay with Aurora A/TPX2 and [γ-32P]ATP (phosphorylation of PHLDA1) [2]: Aurora A directly phosphorylated PHLDA1 (FIG. 1A, lane 2)
in vitro phosphorylation of wild-type, Ser78A and Ser98A PHLDA1 alleles by Aurora A/TPX2 [2]: Aurora A was found to predominantly phosphorylate PHLDA1 at Ser98 (FIG. 2C)
in vitro kinase assay, cofilin phosphorylation with [32P] ATP (6-His-cofilin): Aurora A does not phosphorylate cofilin (FIG. 6H, lanes 1 and 4)

Source: US20130253037
